Measurements taken from patent publication US8357518B2, “Thermostable enzymes for the hydrolysis of mannan-containing polysaccharides” (The Board of Trustees of the University of Illinois, priority 2010, dated 2013).
Positions count from the first letter of the chain named. Numbers in names are those of the source.

What was measured:
Assay type in all cases: biochemical, Caldanaerobius polysaccharolyticus
[1] = substrate: O=[N+]([O-])c1ccc(O[C@@H]2O[C@H](CO)[C@@H](O)[C@H](O)[C@@H]2O)cc1; test: Kinetic properties with pNP-linked sugars (Man5B E137A); conditions: other: Man5B E137A 2 μM, at 10 mM substrate, 65° C., pH 5.5
Protocol: (§1) Determination of kinetic properties for wild type and mutant Man5B with pNP-linked sugars. Kinetic properties of wild type and mutant Man5B were determined for pNP-β-D-mannopyranoside and pNP-β-D-cellobioside. The substrate concentrations ranged from 0.06 to 10 mM and reactions were performed at 65° C. in citrate buffer (50 mM sodium citrate, pH 5.5). The reactions were equilibrated to 65° C. using a thermostated Cary 300 UV-Vis spectrophotometer, and the reactions were initiated by the addition of wild type (5 nM, final concentration) or mutant (2 μM, final concentration) Man5B. The rate of pNP release was determined by continuously monitoring the absorbance at 400 nm. Initial rate data were then plotted against the substrate concentrations, and the values of the Michaelis-Menten constant (KM) and the maximum velocity (Vmax) were estimated from a nonlinear curve fit using GraphPad Prism v5.01 from GraphPad Software (San Diego, Calif.). The kcat was calculated as the quotient of the Vmax and the concentration of enzyme used in the reaction.
(§2) Site-directed mutagenesis. Mutagenesis was carried out using PCR-based […] […]
(§3) Next, to test whether the mutations introduced in Man5B had any effects on the catalytic activity of this enzyme, the catalytic parameters for the wild type and mutant enzymes were determined using pNP-β-D-cellobioside and pNP-β-D-mannopyranoside as substrates.

[2] = substrate: O=[N+]([O-])c1ccc(O[C@@H]2O[C@H](CO)[C@@H](O[C@@H]3O[C@H](CO)[C@@H](O)[C@H](O)[C@H]3O)[C@H](O)[C@H]2O)cc1; test: as above; conditions: other: Man5B E137A 2 μM, at 10 mM substrate, 65° C., pH 5.5
Protocol: as §1, §2, §3

[3] = substrate: O=[N+]([O-])c1ccc(O[C@@H]2O[C@H](CO)[C@@H](O)[C@H](O)[C@@H]2O)cc1; test: Kinetic properties with pNP-linked sugars (Man5B E258Q); conditions: other: Man5B E258Q 2 μM, at 10 mM substrate, 65° C., pH 5.5
Protocol: as §1, §2, §3

[4] = substrate: O=[N+]([O-])c1ccc(O[C@@H]2O[C@H](CO)[C@@H](O[C@@H]3O[C@H](CO)[C@@H](O)[C@H](O)[C@H]3O)[C@H](O)[C@H]2O)cc1; test: as above; conditions: other: Man5B E258Q 2 μM, at 10 mM substrate, 65° C., pH 5.5
Protocol: as §1, §2, §3

[5] = substrate: O=[N+]([O-])c1ccc(O[C@@H]2O[C@H](CO)[C@@H](O)[C@H](O)[C@@H]2O)cc1; test: Kinetic properties with pNP-linked sugars (Man5B E137Q); conditions: other: Man5B E137Q 2 μM, at 10 mM substrate, 65° C., pH 5.5
Protocol: as §1
(§4) Site-directed mutagenesis. Mutagenesis was carried out using PCR-based […] XL site-directed mutagenesis kit from Stratagene (La Jolla, Calif.) according to the manufacturer's instructions. Mutagenic primers with the desired mutation were designed using the […]® Primer Design Program (Stratagene website) and are listed in Table 1-2). The DNA templates for the PCR amplifications were the pET28a-Man5A-TM1 plasmid and the pET46-Man5B plasmid for generation of the Man5A-TM1 and Man5B mutants, respectively. Following 18 cycles of PCR using Pfu Turbo, the PCR mixture was digested with DpnI at 37° C. for 12 h to remove the parental DNA, and the resulting DNA was transformed into competent E. coli JM109 cells through electroporation. The DNA was sequenced to confirm that there were no PCR-derived nucleotide changes except those introduced by the PCR primers. The mutated genes were then expressed to produce the mutant recombinant proteins. The expression and purification methods were as described above for wild-type Man5A-TM1 and Man5B.
as §3

[6] = substrate: O=[N+]([O-])c1ccc(O[C@@H]2O[C@H](CO)[C@@H](O[C@@H]3O[C@H](CO)[C@@H](O)[C@H](O)[C@H]3O)[C@H](O)[C@H]2O)cc1; test: as above; conditions: other: Man5B E137Q 2 μM, 65° C., citrate buffer pH 5.5
Protocol: as §1, §4, §3

[7] = substrate: O=[N+]([O-])c1ccc(O[C@@H]2O[C@H](CO)[C@@H](O)[C@H](O)[C@@H]2O)cc1; test: Kinetic properties with pNP-linked sugars (Man5B E258A); conditions: other: Man5B E258A 2 μM, at 10 mM substrate, 65° C., pH 5.5
Protocol: as §1, §2, §3

[8] = substrate: O=[N+]([O-])c1ccc(O[C@@H]2O[C@H](CO)[C@@H](O[C@@H]3O[C@H](CO)[C@@H](O)[C@H](O)[C@H]3O)[C@H](O)[C@H]2O)cc1; test: as above; conditions: other: Man5B E258A 2 μM, at 10 mM substrate, 65° C., pH 5.5
Protocol: as §1, §2, §3

B1: Caldanaerobius polysaccharolyticus endo-β-mannanase Man5B (SEQ ID NO: 31) variant E137A (Caldanaerobius polysaccharolyticus; E137A) (protein)
chain: MKKYGFNFQWMYVWEEGREPEPPDKKALDFLAETGFNFVRIPVDYRFWTRNFDYFNPDKKVFEYIDLYLRECSARNIHMCLNLHRAPGYCINRNDIERDNLWLDKRAQDGFVYQWELFAKRYKGVSSKFLSFDLVNAPPNIGQYGLTRENHASLIIRTVEAIRKIDPDREIVIDGLGGGNIAMPELAHLGVVHSGRGYQPMALTHYQASWWDGHKGLPEPYYPDLLWQGKVWNKDTLREYYKPWRDLQQKGVNVHIGEFGCFNKTSNDVAIRWFEDVLSLYKEFEWGYSLWNFKGPFGIVEHGRPGAKYEYYRGFKVDRELLDLLVENRV
[1]
  kcat: 0.019 ± 0.001 s⁻¹
[2]
  kcat: 0.011 ± 0.004 s⁻¹

B2: Caldanaerobius polysaccharolyticus endo-β-mannanase Man5B (SEQ ID NO: 31) variant E258Q (Caldanaerobius polysaccharolyticus; E258Q) (protein)
chain: B1 chain with A137E, E258Q
[3]
  kcat: 0.012 ± 0.002 s⁻¹
[4]
  kcat: 0.012 ± 0.004 s⁻¹

B3: Caldanaerobius polysaccharolyticus endo-β-mannanase Man5B (SEQ ID NO: 31) variant E137Q (Caldanaerobius polysaccharolyticus; E137Q) (protein)
chain: B1 chain with A137Q
[5]
  kcat: 0.018 ± 0.006 s⁻¹
[6]
  Km: (2.9 ± 0.9) × 10^−1 mM
  kcat: 0.047 ± 0.01 s⁻¹
  kcat/Km: 160 ± 60 M⁻¹ s⁻¹

B4: Caldanaerobius polysaccharolyticus endo-β-mannanase Man5B (SEQ ID NO: 31) variant E258A (Caldanaerobius polysaccharolyticus; E258A) (protein)
chain: B1 chain with A137E, E258A
[7]
  kcat: 0.018 ± 0.003 s⁻¹
[8]
  kcat: 0.011 ± 0.001 s⁻¹
